In the test the target is GABARAP (Homo sapiens, UniProt O95166). Nature of the test: MST, SPR.
GABARAP, sequence (O95166 1-116): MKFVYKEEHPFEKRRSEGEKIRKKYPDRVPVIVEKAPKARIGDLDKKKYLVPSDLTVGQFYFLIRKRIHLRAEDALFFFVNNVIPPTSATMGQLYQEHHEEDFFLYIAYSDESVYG

By Kd is commonly meant the concentration at which binding is half-saturated. Molecule DATYTWEHLAWP [K1 peptide] showed a Kd of approximately 3000 nM.

Source of the values: article PMC9100651 (2022).
